Laboratory results: patent US20070287170A1 (Merck KGaA, published 2007)

B2: DI-KS(AG(f0) SEED)-IL-2 heavy chain with DI-KS light chain (antibody)
heavy: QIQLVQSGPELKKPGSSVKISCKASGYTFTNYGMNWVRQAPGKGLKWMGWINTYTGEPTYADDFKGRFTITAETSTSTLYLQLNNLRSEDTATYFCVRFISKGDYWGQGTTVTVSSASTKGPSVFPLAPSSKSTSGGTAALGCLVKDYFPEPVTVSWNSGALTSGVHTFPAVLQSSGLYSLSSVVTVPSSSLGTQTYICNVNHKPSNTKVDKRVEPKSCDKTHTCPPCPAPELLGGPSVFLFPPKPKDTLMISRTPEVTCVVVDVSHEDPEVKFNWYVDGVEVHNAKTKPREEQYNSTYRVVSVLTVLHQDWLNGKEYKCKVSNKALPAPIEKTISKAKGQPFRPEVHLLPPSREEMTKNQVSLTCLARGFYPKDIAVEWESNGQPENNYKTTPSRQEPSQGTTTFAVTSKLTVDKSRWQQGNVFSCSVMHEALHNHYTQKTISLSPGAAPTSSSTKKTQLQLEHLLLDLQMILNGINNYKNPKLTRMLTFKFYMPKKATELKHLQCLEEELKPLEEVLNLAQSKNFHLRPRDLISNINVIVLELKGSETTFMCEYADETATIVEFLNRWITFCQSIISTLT
light: QIVLTQSPASLAVSPGQRATITCSASSSVSYILWYQQKPGQPPKPWIFDTSNLASGFPSRFSGSGSGTSYTLTINSLEAEDAATYYCHQRSGYPYTFGGGTKVEIKRTVAAPSVFIFPPSDEQLKSGTASVVCLLNNFYPREAKVQWKVDNALQSGNSQESVTEQDSKDSTYSLSSTLTLSKADYEKHKVYACEVTHQGLSSPVTKSFNRGEC
notes: also called heavy chain-IL2

Assays:
[1] = target: the molecule itself; assay: co-expression in mammalian cells, non-reducing SDS-PAGE (homodimer)
[2] = target: B2; assay: co-expression in mammalian cells, non-reducing SDS-PAGE (heterodimer)
[3] = target: the molecule itself; assay: co-expression of both heavy chains and the light chain in mammalian cells, non-reducing SDS-PAGE
[4] = target: the molecule itself; assay: co-expression with Fc(AG(f0) SEED)-IL2 in NS/0 cells, non-reducing SDS-PAGE (homodimer)
Fc(AG(f0) SEED)-IL2 = target: T1, Fc(AG(f0) SEED)-IL2; assay: co-expression in NS/0 cells, SDS-PAGE (figure legend)
T1 construct: also called "Full" AG SEED-IL-2; Fc(AG SEED)-IL2

[5] = target: the molecule itself; assay: co-expression with Fc(AG(s0) SEED)-IL2 in NS/0 cells, non-reducing SDS-PAGE (homodimer)
Fc(AG(s0) SEED)-IL2 = target: T2, Fc(AG(s0) SEED)-IL2 (human); assay: co-expression in NS/0 cells, SDS-PAGE (figure legend)
T2 construct: It was put together from the cloning scheme (Ngo MIV/Sma I fragment exchange in the pdCs Fc-IL2 vector); also called "Surface" AG SEED-IL-2; AG SURF

B1: DI-KS(GA(f0) SEED) heavy chain with DI-KS light chain (antibody)
heavy: QIQLVQSGPELKKPGSSVKISCKASGYTFTNYGMNWVRQAPGKGLKWMGWINTYTGEPTYADDFKGRFTITAETSTSTLYLQLNNLRSEDTATYFCVRFISKGDYWGQGTTVTVSSASTKGPSVFPLAPSSKSTSGGTAALGCLVKDYFPEPVTVSWNSGALTSGVHTFPAVLQSSGLYSLSSVVTVPSSSLGTQTYICNVNHKPSNTKVDKRVEPKSCDKTHTCPPCPAPELLGGPSVFLFPPKPKDTLMISRTPEVTCVVVDVSHEDPEVKFNWYVDGVEVHNAKTKPREEQYNSTYRVVSVLTVLHQDWLNGKEYKCKVSNKALPAPIEKTISKAKGQPREPQVYTLPPPSEELALNELVTLTCLVKGFYPSDIAVEWLQGSQELPREKYLTWAPVLDSDGSFFLYSILRVAAEDWKKGDTFSCSVMHEALHNHYTQKSLDRSPGK
light: QIVLTQSPASLAVSPGQRATITCSASSSVSYILWYQQKPGQPPKPWIFDTSNLASGFPSRFSGSGSGTSYTLTINSLEAEDAATYYCHQRSGYPYTFGGGTKVEIKRTVAAPSVFIFPPSDEQLKSGTASVVCLLNNFYPREAKVQWKVDNALQSGNSQESVTEQDSKDSTYSLSSTLTLSKADYEKHKVYACEVTHQGLSSPVTKSFNRGEC
notes: It has anti-EpCAM V regions, human IgG1 CH1 and CH2, and human Ckappa; also called antibody heavy chain (no IL-2)
[1]
  binding result: binds
[2]
  binding result: binds

## B2
[3]
  binding result: no binding

B3: Fc(GA(f0) SEED) (designed binder)
chain: EPKSSDKTHTCPPCPAPELLGGPSVFLFPPKPKDTLMISRTPEVTCVVVDVSHEDPEVKFNWYVDGVEVHNAKTKPREEQYNSTYRVVSVLTVLHQDWLNGKEYKCKVSNKALPAPIEKTISKAKGQPREPQVYTLPPPSEELALNELVTLTCLVKGFYPSDIAVEWLQGSQELPREKYLTWAPVLDSDGSFFLYSILRVAAEDWKKGDTFSCSVMHEALHNHYTQKSLDRSPGK
notes: also called "Full" GA SEED; Fc(GA SEED)
[4]
  binding result: binds
Fc(AG(f0) SEED)-IL2
  binding result: binds

B4: Fc(GA(s0) SEED) (designed binder)
chain: EPKSSDKTHTCPPCPAPELLGGPSVFLFPPKPKDTLMISRTPEVTCVVVDVSHEDPEVKFNWYVDGVEVHNAKTKPREEQYNSTYRVVSVLTVLHQDWLNGKEYKCKVSNKALPAPIEKTISKAKGQPREPQVYTLPPPSEELALNNQVTLTCLVKGFYPSDIAVEWESNGQPEPREKYLTWAPVLDSDGSFFLYSILRVDASRWQQGNVFSCSVMHEALHNHYTQKSLSLSPGK
notes: It was put together from the cloning scheme: the Ngo MIV/Sma I fragment for the SEED replaces that of CH3 in the pdCs Fc vector; also called "Surface" GA SEED; GA SURF
[5]
  binding result: binds
Fc(AG(s0) SEED)-IL2
  binding result: binds
